Assay results taken from the supplement of paper PMC9170038.

test system: MS2 coat protein; assay: apparent KD of MS2 coat protein, switch ON state; designed switch direction (-1 OFF switch, 1 ON switch): -1; higher = weaker reporter binding; conditions: FMN input: 0 or 200 uM; Eterna round: R93 (includes R88 designs)
Method in brief: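 Apparent KD per design is the median of normalised cluster binding-curve fits. Designed RNA switches transcribed on-chip from Illumina sequencing clusters were titrated with SNAP-549-labelled MS2 coat protein in twofold steps from 0.7 or 1.5 nM to 3 µM, with 0.8–1.5 h down to 10–20 min per step. Buffer: 100 mM Tris-HCl pH 7.5, 80 mM KCl, 4 mM MgCl2, without or with constant ligand.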

Row | Sequence | apparent KD of MS2 coat protein
1 | AUAAUGCGAGGAUAUACAUGAGGAUCACCCAUGUAAAUCAAUAGGAGAGCCACAUUAAGUAGAAGGUGCAUUAA [JR_Exc003_Sub502] | 20.4 nM
2 | AAAGGACGAGGAUAUACAUGAGGAUCACCCAUGUAAAAAACAUAAUAAAAGAACUUAUGUAGAAGGCGUCCAAA [Meechl Ex3 2] | 53.8 nM
3 | AUAGUACAUGAGGAUCACCCAUGUCAGGAUAUUGGAUAUGAAAAAAAAAAAAAGUUAACGAGAAGGGACUAUAA [EX1 Malc#14] | 28.5 nM
4 | AGUUGGCGAGGAUAUACAUGAGGAUCACCCAUGUAAAAAAAAAAAAAAAAAACUUCAUGUAGAAGGCGCUGACA [Starry Exclusion 3.4 (biggestlegoheroicafanever round 1 mod)] | 85.5 nM
5 | AAAAAACAUGAGGAUCACCCAUGUAAGGAUAUGCUAAAAAACGCAAAAAAAGCGAAUAGCAGAAGGUACAAAAA [66%, Wbt, 29] | 19.4 nM
6 | UUAAAACAUGAGGAUCACCCAUGUGAGGAUAUGCAAUACUAAUAUUAAAAUAAUUAUAGCAGAAGGCACAUAGU [JR_EXc001_Sub802] | 28.4 nM
7 | AAAAAGCGAGGAUAUACGAGUCAAAGAAAAGACAAAAGGGAACAUGAGGAUCACCCAUGUAGAAGGCGCAAAAA [Fiskers exclusion D2 62% 2] | 30 nM
8 | AAGAAGUGAGGAUAUCGAAGACUGUCGAAAAGACAGUCGAACGAGAAGGCACAUGAGGAUCACCCAUGUGGAAA [Marsurpial 65% 5] | 30.7 nM
9 | AAAGGACAAGGAUAUACAUGAGGAUCACCCAUGUGUAAAACAUAAUAAAAUAACUUAUGUAGAAGGUGUCCAAA [Mat - Exclusion 3 - Eli mod - D100] | 30.5 nM
10 | AAGAAGUCAGGAUAUGCAAAAGAAAAGAAAAGAAAAGAAAAGCAGAAGGGACAUGAGGAUCACCCAUGUAAGAA [Metsuire Cambyses] | 32.7 nM
11 | CAGUACUGAGGAUAUACAUGAGGAUCACCCAUGUAAAAAAGCUACGAAAGUAGCAAAUGUAGAAGGCAGUACUG [Ex3: 804] | 15.5 nM
12 | AAAAAAGCAGGAUAUACGAACAUGUCGAAAGACGUGAAGGGACAUGAGGAUCACCCAUGUAGAAGGGUUAAGAA [Mat - Exclusion 2 - JL mod - D75] | 166 nM
13 | AAGAAGAGAGGAUAUACAUAAUAAAAGAAAAGAAACAAAGAACAUGAGGAUCACCCAUGUAGAAGGCUCAAGAA [Khasekhemre Neferhotep I] | 32.1 nM
14 | AACAGUACAGGAUAUACAUGAGGAUCACCCAUGUGAAAAUUAAGUGGAGAACCACAAAGUAGAAGGGUACUGAA [Mat - Exclusion 3 - Eli mod - D57] | 27.6 nM
15 | AGUUGGCGAGGAUAUACAUGAGGAUCACCCAUGUGAAAGAAAAAAGUGAGAAAGAAAAGUAGAAGGCGCUGACA [73%, Moding Norbert Elias, 2] | 54.7 nM
16 | AGCUAGUCAGGAUAUACAAACAUGUCAAAAGACGUGAAGGAACAUGAGGAUCACCCAUGUAGAAGGGACUAGCA [Web Mod 74% 3] | 21 nM
17 | AAGAAGUAAGGAUAUACAAAAUAAAAGAAAAGAAAGAAAGAACAUGAGGAUCACCCAUGUAGAAGGUACAAGAA [Sankhkare Mentuhotep III] | 38.1 nM
18 | GAAAAGUCAGGAUAUGCGAAGGCGUCUGAUAGACGAGGCUAGCAGAAGGGACAUGAGGAUCACCCAUGUGGAAG [Mat - Exclusion 4 - Eli mod - D90] | 76.5 nM
19 | AAAAUGUCAGGAUAUGCGAAGGCGUCUGACGGACGAGGAUUGCAGAAGGGACAUGAGGAUCACCCAUGUAAAAA [Mod Hyphema's Change in Energy -added G at 31] | 79.5 nM
20 | AACAGUACAGGAUAUACAUGAGGAUCACCCAUGUGAGAAUUAAGUGGCGAACCACAAAGUAGAAGGGUACUGAA [Mat - Exclusion 3 - JL mod - D7] | 45.3 nM
21 | UGCUAGUCAGGAUAUACGAACAUGUCAAAAGACGUGAAGGGACAUGAGGAUCACCCAUGUAGAAGGGACUAGCA [salish99-Ex2-18] | 37.5 nM
22 | AAGAAUCGAGGAUAUACAUGAGGAUCACCCAUGUAAAAGAAAGAAAAGGGAAAGAAAAGUAGAAGGCGAAAGAA [Userkhaure Setnakht] | 32.8 nM

Row | Sequence | apparent KD of MS2 coat protein
23 | GAAAGUGGAGGAUAUACAUGAGGAUCACCCAUGUGUAAAAAUAAAAACACAAAAGAAAGUAGAAGGCCACAAAG [Mat - Exclusion 3 - Mayanna mod - D116] | 22.9 nM
24 | GGUUGCGUAGGAUAUACAUGAGGAUCACCCAUGUGAGAGAAAAAAGUGAGAAAGAAAAGUAGAAGGACGUGACG [salish99-ex3-125] | 29.7 nM
25 | AAGAAACAUGAGGAUCACCCAUGUGAGGAUAUGAAAAAGAAAAGAAAAGAAAGAAGAAUCAGAAGGCACAAAGG [Nebkaure Khety II] | 22.1 nM
26 | AAAAAGUGAGGAUAUACAUGAGGAUCACCCAUGUAAAAAAAAAAAAGGGUGGAAGAAAGUAGAAGGCACCAAAA [Ex 3 May 47] | 67.3 nM
27 | GAAAACCUAGGAUAUACAUGAGGAUCACCCAUGUCAGUAGACUGGGUAAGGUCUCUCAGUAGAAGGAGGACCCA [Ratilein] | 315 nM
28 | UGUUGGCGAGGAUAUACAUGAGGAUCACCCAUGUGAGAGAAAAAAGUGAGAAAGAAAAGUAGAAGGCGCUGACU [salish99-ex3-08] | 42.7 nM
29 | AAAACGUCAGGAUAUACAGAAGAGAUCACGAAAAAAAAAAAACAUGAGGAUCACCCAUGUAGAAGGGACAAAAA [Ex2 Malc#3] | 117 nM
30 | AAAAAGAUAGGAUAUACGAACAUGUCGAAAGACGUGAAGGGACAUGAGGAUCACCCAUGUAGAAGGGUUAAAAA [Mat - Exclusion 2 - JL mod - D88] | 149 nM
31 | AAAAAAGGAGGAUAUACAUGAGGAUCACCCAUGUAAAAAGGGAAAAAAAAAAAAAAAAGUAGAAGGCCUAAAAA [JR_Exc003_Sub1701] | 41.7 nM
32 | AAAAAUGGAGGAUAUACAUGAGGAUCACCCAUGUGUGGGCAUACUAUGUGGGCGUCAGGUAGAAGGCCAAAAAA [Gilly Gone Silly 25 - Jieux - Exclusion 3] | 93.7 nM
33 | AAAGGACGAGGAUAUACAUGAGGAUCACCCAUGUAAAAAACAUAGUAAAAGAACUUGUGUAGAAGGCGUCCAAA [Meechl Ex3 2 R2 v7] | 159 nM
34 | AACAGUACAGGAUAUACAUGAGGAUCACCCAUGUAGAGAGAAUAAAACAAAAAUAAAUGUAGAAGGGUACUGGA [Moding Maslow revisited (73) 23] | 25.6 nM
35 | AAGAAACAUGAGGAUCACCCAUGUGAGGAUAUCCAAAAGAAAAGAAAAGAAAGAAGAAGGAGAAGGCACAAAGG [Nikare] | 88.5 nM
36 | AAAAAGUGAGGAUAUACGUUAAAAAAAAAAAAAAAAAAGCAGUAGAAGGCACAUGAGGAUCACCCAUGUAAAAA [Ex4 Malc#2] | 41.3 nM
37 | ACGUAGAGAGGAUAUACGAACAUGUCAAAAGACGUGAAGGGACAUGAGGAUCACCCAUGUAGAAGGCUCUACGA [Mat - Exclusion 2 - JL mod - D8] | 54.8 nM
38 | AAAAAAUAAGGAUAUACAUUUCGGGAAAUUUUUACAAAAAAACAUGAGGAUCACCCAUGUAGAAGGUAUAAAAA [Exclusion 2] | 18.6 nM
39 | AGAAAACAUGAGGAUCACCCAUGUCAGGAUAUACAAAAUAAAAUAAAAAUAAAAUAAAGUAGAAGGGACAAAGA [Mat - Same state - Mayanna Mod - D109] | 33.5 nM
40 | AAAAAGAGAGGAUAUACAUGAGGAUCACCCAUGUGACAUAAAAUAAAUAAAAUAAAGUGUAGAAGGCUCAAAAA [65%, Moding Exclusion3-cac2, 21] | 41.7 nM
41 | AUAGUACAUGAGGAUCACCCAUGUCAGGAUAUUCGAAACGAAAAAAAAAAAAAGUGAAGGAGAAGGGACUAUAA [EX1 Malc#10] | 17.5 nM
42 | GAAAAACAUGAGGAUCACCCAUGUAAGGAUAUGCUGAAAAACACGGAAAAACGUGACAGCAGAAGGUACAAAAG [Mat - Exclusion 1 - Eli mod - D94] | 18.3 nM
43 | GAAAAACAUGAGGAUCACCCAUGUAAGGAUAUGCGAAAAUAAAAUAAAAUAAAAUAAAGCAGAAGGUACAAAAA [Mat - Exclusion 1 - Eli mod - D1] | 29.5 nM
